Data on two molecules can be found in US20190241648A1 (STATEN BIOTECHNOLOGY B V, published 2019).

Ends that are not written are not given here.

The target of assay [1] is T1, ApoC3 peptide … L50H (human, not fully specified; cyclic constrained).
T1 peptide: ARGWVTDGFSSHK
Put plainly: peptide microarray. An excerpt: (§1) Amino acids G41 and G46 were highly conserved; substitution of G41 by E, N or Q caused a decrease of spot intensities by ˜70% or higher, whereas exchange of G46 by N was hardly tolerated and resulting in 90% reduced spot intensities. […] Amino acid positions V43, D45 and K51 were also well conserved with a clear preference for the wild type amino acids and a certain tolerance particularly for conservative exchanges by Y, F and I (V43), A, E and K (D45) as well as by R (K51). […] Replacement of V43 by Y, however, increased spot intensity by two fold. Amino acid positions W42 and 48S were poorly conserved or even variable; both positions were susceptible for only a number of amino acid exchanges, and exchange by F, S and T (W42) or by E (S48) even caused a two- to three-fold increase of spot intensity. Amino acid positions A39 and R40 were variable.
(§2) Pre: staining of one of the ApoC3 peptide microarrays was done with the secondary antibody goat anti-human IgG (Fe) DyLight680 (1:5000) and control antibody mouse monoclonal anti-HA (12CA5) DyLight800 (1:2000) to investigate background interactions of the secondary antibody with the antigen-derived peptides that could interfere with the main assays. Subsequent incubation of other ApoC3 peptide microarrays with antibody samples was followed by staining with secondary and control antibodies as well as read-out at scanning intensities of 7/7 (red/green). The additional HA peptides framing the peptide arrays were stained as internal quality control to confirm the assay quality and the peptide microarray integrity.

Assay [2] has as its target T2, ApoC3 peptide … W42T (human, not fully specified (bridges); also: cyclic constrained).
T2 peptide: ARGTVTDGFSSLK
Put plainly: peptide microarray.
Text: as §1, §2

Assay [3] concerns the target T3, ApoC3 peptide … D45E (human, not fully specified (bridges); also: cyclic constrained).
T3 peptide: ARGWVTEGFSSLK
Put plainly: peptide microarray.
Text: as §1, §2

The target of assay [4] is T4, wild-type ApoC3 peptide ARGWVTDGFSSLK (SEQ ID NO: 45) (human, not fully specified (bridges); also: cyclic constrained, ring type and positions not given here).
T4 construct: 13 aa cyclic constrained peptide
T4 peptide: ARGWVTDGFSSLK
Nature of the assay: peptide microarray.
Text: as §1, §2

Assay [5] has as its target T5, ApoC3 peptide … G46R (human, thioether (positions not given here); also: cyclic constrained).
T5 peptide: ARGWVTDRFSSLK
Nature of the assay: peptide microarray.
Text: as §1, §2

In assay [6] the target is T6, ApoC3 peptide … D45Q (human, cyclic constrained).
T6 peptide: ARGWVTQGFSSLK
Put plainly: peptide microarray.
Text: as §1, §2

The target of assay [7] is T7, ApoC3 peptide … W42Q (human, not fully specified (bridges); also: cyclic constrained).
T7 peptide: ARGQVTDGFSSLK
Put plainly: peptide microarray.
Text: as §1, §2

Assay [8] deals with T8, ApoC3 peptide … W42K (human, not fully specified (bridges); also: cyclic constrained).
T8 peptide: ARGKVTDGFSSLK
Put plainly: peptide microarray.
Text: as §1, §2

The target in assay [9] is T9, ApoC3 peptide … G46W (human, thioether (positions not given here); also: cyclic constrained).
T9 peptide: ARGWVTDWFSSLK
Put plainly: peptide microarray.
Text: as §1, §2

The target in assay [10] is T10, ApoC3 peptide … L50T (human, not fully specified (bridges); also: cyclic constrained).
T10 peptide: ARGWVTDGFSSTK
Nature of the assay: peptide microarray.
Text: as §1, §2

In assay [11] the target is T11, ApoC3 peptide … L50I (human, not fully specified; cyclic constrained).
T11 peptide: ARGWVTDGFSSIK
Nature of the assay: peptide microarray.
Text: as §1, §2

For assay [12], the target named is T12, ApoC3 peptide … K51I (human, not fully specified; cyclic constrained).
T12 peptide: ARGWVTDGFSSLI
Nature of the assay: peptide microarray.
Text: as §1, §2

Assay [13] has as its target T13, ApoC3 peptide … D45M (human, cyclic constrained).
T13 peptide: ARGWVTMGFSSLK
Put plainly: peptide microarray.
Text: as §1, §2

Assay [14] has as its target T14, ApoC3 peptide … R40H (human, not fully specified (bridges); also: cyclic constrained).
T14 peptide: AHGWVTDGFSSLK
Nature of the assay: peptide microarray.
Text: as §1, §2

Assay [15] addresses T15, ApoC3 peptide … T44A (human, not fully specified (bridges); also: cyclic constrained).
T15 peptide: ARGWVADGFSSLK
Nature of the assay: peptide microarray.
Text: as §1, §2

The target of assay [16] is T16, ApoC3 peptide … T44R (human, not fully specified (bridges); also: cyclic constrained).
T16 peptide: ARGWVRDGFSSLK
Nature of the assay: peptide microarray.
Text: as §1, §2

Assay [17] deals with T17, ApoC3 peptide … S48C (human, not fully specified; cyclic constrained).
T17 peptide: ARGWVTDGFCSLK
Nature of the assay: peptide microarray.
Text: as §1, §2

Assay [18] addresses T18, ApoC3 peptide … D45A (human, not fully specified (bridges); also: cyclic constrained).
T18 peptide: ARGWVTAGFSSLK
Put plainly: peptide microarray.
Text: as §1, §2

For assay [19], the target named is T19, ApoC3 peptide … K51D (human, thioether (positions not given here); also: cyclic constrained).
T19 peptide: ARGWVTDGFSSLD
Put plainly: peptide microarray.
Text: as §1, §2

Assay [20] concerns the target T20, ApoC3 peptide … V43D (human, not fully specified; cyclic constrained).
T20 peptide: ARGWDTDGFSSLK
Nature of the assay: peptide microarray.
Text: as §1, §2

Assay [21] deals with T21, ApoC3 peptide … R40A (human, not fully specified (bridges); also: cyclic constrained).
T21 peptide: AAGWVTDGFSSLK
Nature of the assay: peptide microarray.
Text: as §1, §2

For assay [22], the target named is ApoC3 peptide … S48I (human, cyclic constrained). Put plainly: peptide microarray.
Text: as §1, §2

Assay [23] concerns the target T22, ApoC3 peptide … R40Y (human, thioether (positions not given here); also: cyclic constrained).
T22 peptide: AYGWVTDGFSSLK
Put plainly: peptide microarray.
Text: as §1, §2

For assay [24], the target named is T23, ApoC3 peptide … T44F (human, not fully specified (bridges); also: cyclic constrained).
T23 peptide: ARGWVFDGFSSLK
Put plainly: peptide microarray.
Text: as §1, §2

In assay [25] the target is T24, ApoC3 peptide … F47N (human, not fully specified (bridges); also: cyclic constrained).
T24 peptide: ARGWVTDGNSSLK
Nature of the assay: peptide microarray.
Text: as §1, §2

Assay [26] concerns the target T25, ApoC3 peptide … S49L (human, cyclic constrained).
T25 peptide: ARGWVTDGFSLLK
Put plainly: peptide microarray.
Text: as §1, §2

The target in assay [27] is ApoC3 peptide … S48M (human, cyclic constrained). Nature of the assay: peptide microarray.
Text: as §1, §2

Assay [28] concerns the target ApoC3 peptide … S49C (human, cyclic constrained). Put plainly: peptide microarray.
Text: as §1, §2

The target of assay [29] is T26, ApoC3 peptide … F61I (human, cyclic constrained).
T26 peptide: DKISEFWDLDPEV
Put plainly: cyclic peptide substitution array.

Assay [30] addresses ApoC3 peptide … E63W (human, cyclic constrained). Nature of the assay: cyclic peptide substitution array.
Assay [31] concerns the target T27, ApoC3 peptide … L67N (human, not fully specified (bridges); also: cyclic constrained).
T27 peptide: DKFSEFWDNDPEV
Put plainly: cyclic peptide substitution array.

B1: anti-ApoC3 antibody 14C7 (antibody, V domains shown)
VH: QVQVQESGPGLVKPSQTLSLTCTVSGGSITTNSYYWSWIRQPPGKGLEWMGAIDYSGDTYYSPSLKSRTSISRDTSKNQFTLQLTSVTPEDTAVYYCVSRIPTGEYWGQGTQVTVSS
VL: QTVVTQEPSLSVSPGGTVTLTCGLNSGSVTSSNYPDWYQQTPGQAPRLLIYNTNSRHSGVPSRFSGSISGNKAALTITGAQPEDEADYYCALYMGSDSVVFGGGTHLTVL
notes: it was detected with goat anti-human IgG (Fc); also called mAb 14C7; llama antibody 14C7
B1: the “% of binding to wild-type peptide” value turned out to be 0% in assay [1]; 186% in assay [2]; 40% in [3]; 100% in assay [4]; 0.3% in [5]; 21% in assay [6]. Besides, the “% of binding to wild-type peptide” value in assay [7] amounted to 93.1%; in [8] it was 136%; in [9] it was 0%; in assay [10], 0%; in assay [11], 9.47%; in assay [12], 0.86%. The “% of binding to wild-type peptide” value was 21% in [13]; 44.4% in assay [14]; 0% in assay [15]; 0% in [16]; 56.8% in [17]; 45.3% in assay [18]. Besides, the “% of binding to wild-type peptide” value in [19] came to 0%; in assay [20] it was 0%; in assay [21], 50.1%; in [22] it was 23.6%; in assay [23], 37.5%; in assay [24] it was 0%. Further, the “% of binding to wild-type peptide” value in [25] was determined as 0.06%; in [26], 0%; in assay [27], 121%; in [28], 0%.

B2: Llama antibody 5E5 (antibody, V domains shown)
VH: QLQLVESGGGLVQPGGSLRLSCAASGFTFGTYSMRWVRQVPRKALEWVSSISTDGGGTAYRDSVKGRFTISRDNAKNTLYLQMNNLKPEDTAIYYCVIAGYSDWGQGTQVTVSS
VL: ATMLTQSPGSLSVVPGESASISCKTSQGLVHSDGKTYFYWFLQKPGQSPQQLIYQVSNRASGVPDRFTGSGSGTDFTLKISGVKAEDAGVYYCAQGTYYPHTFGSGTRLEIK
notes: detected with goat anti-human IgG (Fc); also called mAb 5E5
Take B2: the % of binding to wild-type peptide was determined as 7.59% in assay [29], 9.57% in assay [30] and 9.84% in [31].
